Two molecules from patent US20130116185A1, “PHOSPHATIDYLINOSITOL 3-KINASES ACTIVITY REGULATOR INCLUDING THE FIFTH ZINC FINGER DOMAIN OF FOG2” (SNU R&DB FOUNDATION, priority 2010, published 2013) can be followed below.

Common to all, as to format: cell-based
Data set [1] concerns the target T1, PI3K (Homo sapiens, UniProt P27986). The data set can be described thus: IGF-1-induced PI3K activation in Hep3B cells incubated with peptides. Also noted: The cell lysates were immunoprecipitated with p85α (sc-1637, Santa Cruz) and Protein G-Sepharose beads; endogenous in cells; host or cells: Hep3B. Particulars: 4 μM peptides, 48 hr, FIG. 2C. As for the experimental part: (§1) For measurement of PI3K activity, 10 μl of sonicated PIP2 (1 μg/μl, Calbiochem), 10 μl of 100 mM MgCl2 and 1 μl of [-^32P]ATP (500 μCi/ml) were added to the kinase buffer (10 mM Tris-HCl (pH 7.4), 150 mM NaCl, 1 mM Na3VO4, 10 mM ZnCl2) and incubated at 37° C. for 30 min. After incubation, 20 μl of 6 N HCl was added to stop the reaction and PIP2 was extracted by treatment with 200 μl of methanol:chloroform (1:1) solution. The amount of radioactively labeled PIP2 in the extract was measured using a scintillator counter.
In addition, Hep3B liver cancer cells were incubated with 4 μM peptides for 48 hr and the PI3K activity was analyzed.

The subject of data set [2] is MDA MB 231 cells. The data set can be described thus: Apoptosis by FACS analysis (propidium iodide) in MDA MB 231 cells. Particulars: for number of apoptotic cells: transfected with 1 μg FOG2 fragment, 2 days, FIG. 7A. As for the experimental part:
PI3K inactivation has been reported to cause cancer cell apoptosis, and FOG2 is known to inhibit the PI3K activity. To test whether PI3K inactivation by overexpressing FOG2 induces apoptosis, MDA MB 231 cells overexpressed FOG2 were analyzed with FACS.
MDA MB 231 cells were incubated with Full-FOG2[1-1151], FOG2[1-412], FOG2[413-789] or FOG2[802-1151]. The cells (5×10^4) were seeded in a 12-well plate and transfected with 1 μg of Full-FOG2[1-1151], FOG2[1-412], FOG2[413-789] or FOG2[802-1151] using Lipofectamine 2000. The cells were incubated at 37° C. for 2 days and subject to FACS analysis.
The cells were incubated with FOG2 fragments and fixed with 70% ethanol for 16 hr. The fixed cells were stained using RNase (5 mg/ml) and propidium iodide ([…]). The amount of DNA in stained cells was analyzed with Cell Quest program of FACS caliber (Becton Dickinson).

The target of data set [3] is T1, PI3K. In words: PI3K activity in MDA MB 231 cells incubated with zinc finger domain peptides. Also on record: The cell lysates were immunoprecipitated with p85α (sc-1637, Santa Cruz) and Protein G-Sepharose beads; endogenous in cells. The settings on record: synthesized peptides, FIG. 5. The protocol: as §1
For peptide treatment, cells were trypsinized to detach them from a culture dish and their aliquot (2×10^5 cells) was incubated with 4 μM peptides in 100 mm dishes. The control was incubated with Mock (DMSO).

The next data set deals with MCF 7. In words: Apoptosis by FACS analysis in MCF7 cells. The settings on record: synthesized peptides, FIG. 7D. The source says: FIG. 7D is a graph showing the apoptotic effect by synthesized zinc finger domain peptides of FOG2 in MCF7 cells according to FACS analysis;
Another data set deals with Hep3B cells. In words: Apoptosis by FACS analysis in Hep3B cells. Particulars: synthesized peptides, 48 hr of treatment, FIG. 4B. The protocol: PI3K inactivation is known to cause cancer cell apoptosis, and FOG2 is known to inhibit PI3K activity. To test whether PI3K inactivation by overexpressing FOG2 induces apoptosis, Hep3B cells treated with the peptide synthesized in <Experiment 3> were analyzed with FACS.

Data set [4] has as its system MDA MB 231 cells. The data set can be described thus: Cell migration, modified Boyden chamber method. The settings on record: 18 hr migration. In a few lines:
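MDA MB 231 cells, transfected with FOG2 constructs (24 hr) or treated 2 days with 4 μM peptides/DMSO, were seeded serum-free (1×10^5) in Boyden chambers, serum-free below, 18 hr at 37° C. Giemsa-stained migrated cells counted in six random fields; mean cells per field.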

The next data set has as its system Akt. The data set can be described thus: Akt phosphorylation by Western blot in transfected Hep3B cells after IGF-1 stimulation. Particulars: FIG. 1D. The protocol: Hep3B cells were transfected with FOG2 mutants having modified zinc finger domain to measure the effect on the Akt signaling by FOG2-ZF-5m. The Akt activity was measured by analyzed Akt phosphorylation.
Hep3B cells were transfected with pCK-flag (control), FOG2-wt (wild type) and FOG2 mutants having modified zinc finger domain (FOG2-ZF-5-m and FOG2-ZF-6-m) and stimulated with IGF-1. The expression of Akt (Cell signaling Technology, USA), pAkt (Cell signaling Technology, USA) and GAPDH(Santa cruz, USA) were measured by Western blot analysis.
For orientation: A western blot detects proteins with antibodies after separation by electrophoresis.

The test system of the next data set is HCT116 cells. In words: Apoptosis by FACS analysis in HCT116 cells. The settings on record: 2 days after transfection, FIG. 4A. As for the experimental part: PI3K inactivation is known to cause cancer cell apoptosis, and FOG2 is known to inhibit PI3K activity. To test whether PI3K inactivation by overexpressing FOG2 induces apoptosis, HCT116 cells transfected with pCK-flag (control), FOG2-wt (wild type) and FOG2 mutants (FOG2-ZF-5-m and FOG2-ZF-6-m) were analyzed with FACS.

Data set [5] addresses T1, PI3K. In words: PI3K activity in Hep3B cells transfected with FOG2 constructs (p85α immunoprecipitation, 32P-ATP/PIP2 kinase assay). Also on record: The cell lysates were immunoprecipitated with p85α (sc-1637, Santa Cruz) and Protein G-Sepharose beads; endogenous in cells; host or cells: Hep3B. The settings on record: 100 ng/ml IGF-1 30 min, FIG. 1C. The protocol:
To investigate the inhibitory effect to PI3K activity by FOG2 zinc finger domain, PI3K activity was analyzed using FOG2 mutants having modified zinc finger domain. Specially, it is known that IGF signaling pathway plays an important role in cancer and the increased IGF-1 level enhances the risk of various cancers in many researches.
Accordingly, the PI3K activity was increased by incubating Hep3B cells with IGF-1 and then measured when the cells were incubated with peptides having mutated FOG2 zinc finger domain.
After Hep3B cells incubation, 100 ng/ml IGF-1 (Insulin like growth factor-1) was added to the cells and incubated for 30 min.
Hep3B cells were transfected with pCK-flag (control), FOG2-wt (wild type) and FOG2 mutants having modified zinc finger domain (FOG2-ZF-5-m and FOG2-ZF-6-m). Two days later, the lysates were obtained using a lysis buffer (20 mM Hepes (pH7.4), 100 mM NaCl, 20 mM KAc, 10 mM MgCl2, 10 mM ZnCl2, 1 mM Na3VO4, 1% NPO4). The cell lysates were immunoprecipitated with p85α (sc-1637, Santa Cruz) and Protein G-Sepharose beads using the same method above. After binding to beads, the lysates were washed 2 times with the lysis buffer and one time with the wash buffer (0.1 M Tris-HCl (pH 7.4), 5 mM LiCl, and 0.1 mM Na3VO4).
as §1

The test system of data set [6] is MDA MB 231 cells. The data set can be described thus: Cell proliferation MTT assay. Particulars: transfected with 100 ng DNA, 3 days post-transfection, FIG. 6A. In a few lines: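 Cells (2×10^3/well) were treated with 4 μM peptide for 3 days, or transfected with 100 ng FOG2 wild-type or zinc-finger mutant plasmid and assayed 3 days later. MTT (2 mg/ml) was added for 1 h at 37 °C, dissolved in DMSO, and absorbance was read at 590 nm.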

T1 sequence (P27986 whole entry): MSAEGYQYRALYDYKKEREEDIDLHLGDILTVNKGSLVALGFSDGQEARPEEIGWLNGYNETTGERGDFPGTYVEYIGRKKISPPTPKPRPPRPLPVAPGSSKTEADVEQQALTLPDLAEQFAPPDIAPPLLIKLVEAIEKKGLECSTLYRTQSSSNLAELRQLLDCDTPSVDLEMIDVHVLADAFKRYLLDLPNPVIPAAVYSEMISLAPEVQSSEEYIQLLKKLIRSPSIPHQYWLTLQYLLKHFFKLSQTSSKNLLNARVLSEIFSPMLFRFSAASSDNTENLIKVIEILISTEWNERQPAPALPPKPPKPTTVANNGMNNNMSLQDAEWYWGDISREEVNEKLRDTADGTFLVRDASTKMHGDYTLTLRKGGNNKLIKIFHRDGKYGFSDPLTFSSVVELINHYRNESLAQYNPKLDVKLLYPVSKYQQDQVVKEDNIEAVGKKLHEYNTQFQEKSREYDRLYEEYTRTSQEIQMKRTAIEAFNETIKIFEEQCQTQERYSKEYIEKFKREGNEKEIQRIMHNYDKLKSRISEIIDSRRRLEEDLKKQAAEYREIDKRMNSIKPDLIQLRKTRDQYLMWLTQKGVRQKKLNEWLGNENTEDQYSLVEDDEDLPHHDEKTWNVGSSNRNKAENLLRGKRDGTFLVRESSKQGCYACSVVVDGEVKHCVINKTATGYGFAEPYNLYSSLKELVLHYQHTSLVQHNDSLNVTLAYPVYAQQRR

For “ZF-5-wt-20: The peptide comprising a portion of the fifth zinc finger domain of FOG2 (20 amino acids) (CFECNITFNNLDNYLVHKKH)”, in the data set with PI3K [1], the “IGF-1-induced PI3K activation” value is “inhibited”. The apoptosis entry was “promoted apoptosis” in the data set with MDA MB 231 cells [2] (synthesized peptides, FIG. 7C); “promoted apoptosis” with MCF 7; “induced apoptosis” in the data set with Hep3B cells. Moreover, in the data set with PI3K [3], the PI3K activity entry is “decrease PI3K activity”. Moreover, the “reduction of cell migration” value with MDA MB 231 cells [4] (4 μM peptide, 2 days of treatment, FIG. 3B) is “reduce the cell migration”.

B1: FOG2-wt: The wild type of FOG2; full-length FOG2 cDNA cloned into the pCK-flag vector and overexpressed (protein)
chain: MSRRKQSKPRQIKRPLEDAIEDEEEECPSEETDIISKGDFPLEESFSTEFGPENLSCEEVEYFCNKGDDEGIQETAESDGDTQSEKPGQPGVETDDWDGPGELEVFQKDGERKIQSRQQLPVGTTWGPFPGKMDLNNNSLKTKAQVPMVLTAGPKWLLDVTWQGVEDNKNNCIVYSKGGQLWCTTTKAISEGEELIAFVVDFDSRLQAASQMTLTEGMYPARLLDSIQLLPQQAAMASILPTAIVNKDIFPCKSCGIWYRSERNLQAHLMYYCSGRQREAAPVSEENEDSAHQISSLCPFPQCTKSFSNARALEMHLNSHSGVKMEEFLPPGASLKCTVCSYTADSVINFHQHLFSHLTQAAFRCNHCHFGFQTQRELLQHQELHVPSGKLPRESDMEHSPSATEDSLQPATDLLTRSELPQSQKAMQTKDASSDTELDKCEKKTQLFLTNQRPEIQPTTNKQSFSYTKIKSEPSSPRLASSPVQPNIGPSFPVGPFLSQFSFPQDITMVPQASEILAKMSELVHRRLRHGSSSYPPVIYSPLMPKGATCFECNITFNNLDNYLVHKKHYCSSRWQQMAKSPEFPSVSEKMPEALSPNTGQTSINLLNPAAHSADPENPLLQTSCINSSTVLDLIGPNGKGHDKDFSTQTKKLSTSSNNDDKINGKPVDVKNPSVPLVDGESDPNKTTCEACNITFSRHETYMVHKQYYCATRHDPPLKRSASNKVPAMQRTMRTRKRRKMYEMCLPEQEQRPPLVQQRFLDVANLNNPCTSTQEPTEGLGECYHPRCDIFPGIVSKHLETSLTINKCVPVSKCDTTHSSVSCLEMDVPIDLSKKCLSQSERTTTSPKRLLDYHECTVCKISFNKVENYLAHKQNFCPVTAHQRNDLGQLDGKVFPNPESERNSPDVSYERSIIKCEKNGNLKQPSPNGNLFSSHLATLQGLKVFSEAAQLIATKEENRHLFLPQCLYPGAIKKAKGADQLSPYYGIKPSDYISGSLVIHNTDIEQSRNAENESPKGQASSNGCAALKKDSLPLLPKNRGMVIVNGGLKQDERPAANPQQENISQNPQHEDDHKSPSWISENPLAANENVSPGIPSAEEQLSSIAKGVNGSSQAPTSGKYCRLCDIQFNNLSNFITHKKFYCSSHAAEHVK
modifications: left off: small tags and cut ends
notes: The wild type of FOG2; full-length FOG2 cDNA cloned into the pCK-flag vector and overexpressed
As for B1, the Akt phosphorylation result was “decreased” with Akt and “inhibited” in the data set on Akt (listed as FOG2-ZF-wt). Besides, the “number of apoptotic cells” value with MDA MB 231 cells [2] (listed as FOG2[1-1151]) was “reduces the apoptosis”; in the data set with MDA MB 231 cells [2] (listed as Full-FOG2[1-1151]), “increased”. Further, the apoptosis result in the data set with HCT116 cells was “increased apoptosis”. In addition, in the data set with PI3K [5], the “PI3K activation by IGF-1 stimulation” value was “inhibited”. Moreover, the “reduction of cell migration” value in the data set on MDA MB 231 cells [4] (transfected 24 hr, FIG. 3A) is on record as “approximately 80%”. Besides, the “reduction of cell proliferation” value with MDA MB 231 cells [6] is given as “about 40%”.
